# Experimental data from the nanobody polyreactivity screen of Harvey et al. (2022).
# Experiment: yeast display, Sf9 membrane polyspecificity reagent, FACS + sequencing; frameworks hold sequencing errors
# Procedure, shortened: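 Nanobodies from a synthetic yeast display library (Saccharomyces cerevisiae BJ5465), induced 36–48 hours with galactose, were stained 1 hour at 4 °C with 10% biotinylated, detergent-solubilized Sf9 membrane reagent, enriched on streptavidin microbeads, then FACS-sorted. Anti-HA (expression) and streptavidin (reagent binding) fluorescence set low and high (top ~1%) gates. Polyreactivity labels come from the gate of origin. Genes were colony-PCR amplified, MiSeq 2 × 250 sequenced and filtered by CDR length.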
sequence,measurement,value
QVQLVQSGGGLVQAGGILRLSCAASVSTLFGYAMGWYRQAPGKERELVAAINTGGSTNDADSVKGRFTISRDNAKNTVYVQMNSLKPEDTAVYYCAADYEWDAFAYDYWGHGTQVTVSS,polyreactivity (PSR sort gate),low polyreactivity
QVQLVQSGGGLVQAGGRLRLSCAASGRIFYYYTMGWYRQAPGKERELVAVISRSGDRTYYADSVKGRFTISRDIAKNTVYLQMNSLKPEDTAVYYCATRWSSARMDYCGQGTQVTVSS,polyreactivity (PSR sort gate),high polyreactivity
QVQLVQSGGGLVQAGGSHRLSCAASGSTFKPYALGWYRQSPGKETELVAASSRGTRTYADSVKGRFTISRDNAKNTVYLQMNSVKPEDTAVYYCAAEWRLTFGYHYEFDYWGQGTQVTVSS,polyreactivity (PSR sort gate),low polyreactivity
QVQLVQSGGGLVQAGGSLRLSCAASGFTFIRYAMGWYRQAPGKERELVAAIRGTGTSTYYADSVKGRFTISRDIAKNTVYLQMNSLKPEDTAVYYCNAGTYYRSYGYDYWGQGTQVTVSS,polyreactivity (PSR sort gate),low polyreactivity
QVQLVQSGGGLVQAGGSLRLSCAASGRIFRTYAMGWYRQAPGKERELVAAISSRSGSTYYADSVKGRFTISRDNAKNTVYLQMQSLKPEDTAVYYCASRYGYRYADKGSEYGYWGQGTLVTVSS,polyreactivity (PSR sort gate),high polyreactivity
QVQLVQSGGGLVQAGGSLRLSCAASGSIFTPNAMGWYRQAPGKERELVAAISGRTGTTYYADSVKGRFTISRDNAKNTVYLQMHSLKPEDTAVYYCAKSSGRYRSDYRGQGTQVTVSS,polyreactivity (PSR sort gate),high polyreactivity
QVQLVQSGGGLVQAGGSLRLSCAASGSTFARNAMGWYRQAPGKERELVAAISSSGGRTYYADSVKGRFTISRDHAKNSVYLQMNSLKPEYTEVYYCAAAFSLGMYWGQGTQGTVSS,polyreactivity (PSR sort gate),high polyreactivity
QVQLVQSGGGLVQAGGSLRLSCAASGSTFPTNAMGWYRQAPGKERELVAAITSTGSTYADSVKGRFTISRDNAKNTVYLQMNSLKPEDTAVYYCAADTQWTTPYDYWGQGTQVTVSS,polyreactivity (PSR sort gate),low polyreactivity
QVQLVQSGGGLVQAGGSLRLSCAASGSTFRRKVMGWYRQAPGKETELVAAISWSGTSTNYADSEKGRFTISRDNAKNTVYLQMNSVKPEDTAVYYCATQSLYYRWGLDYWGQGTEVTVSS,polyreactivity (PSR sort gate),high polyreactivity
QVQLVQSGGGLVQAGGSLRLSCAASGSTFTPNDMGWYRQAPGKERELVAAIDWSGGSTYYADSVKGRFTISRDNAKNTVYLQMNSLKPEDTAVYYYNADSSKFYSHGEYEYWGQGTQVTVSS,polyreactivity (PSR sort gate),low polyreactivity
QVQLVQSGGGLVQAGGSLRLSCAASGSTIVTNAMGWYRQAPGKERELVAANTSVGSTYYADSVKGRFTISRDNAKNTVYLQMNSLKPEDTAVYYCNVVYRDQYNYWGQGTQVTVSS,polyreactivity (PSR sort gate),low polyreactivity
QVQLVQSGGGLVQAGGSLRLSCAASGTTFNRNAMGWYRQAPGKEMELVDTITSAGSTYYADSVKGRFTISLDNAKNTVYLHMNSLKPEDTAVYYCAKGHQPGHVFHQEYGYYYWGQGTQGTVSS,polyreactivity (PSR sort gate),low polyreactivity
QVQLVQSGGGLVQAGGSLRLSCADSGSIFEYYTMGWYRQAPGKERELVAAISDGGSTYYADSVKGRFTISRDNAKNTVYLQMYSLKPEDTAVYYCAAEYQQDFWVAVDYWGQGTQVSVSS,polyreactivity (PSR sort gate),low polyreactivity
QVQLVQSGGGLVQAGGSLRLSCAGSGYILQINAMGWYRQAPGKERELVAAISISGGNTYYADSVKGRFTNSRDNAKNTVYLQMNSLKPEDSAVYYCAAYRFYSYLVRYGLLLAYYYWGQGTQVTVSS,polyreactivity (PSR sort gate),low polyreactivity
QVQLVQSGGGLVQAGGSLRLTCAASGRTFVVYAMGWYRQAPGKERQLVASISSIGEITNYADSVKGRFTISRDYAKNTVYLQMNSLKQEDTAVYYCTAPICGSYNTRRAAEYDYWGQGTQVTVSS,polyreactivity (PSR sort gate),low polyreactivity
QVQLVQSGGGLVQAVGSLRLICADSGSIFVPNAMGWYRQALGKERELVAAITYSGVDTYYADSVKGRFTISRDNAKNSVYLQMNSLKPEDTAVYYCAADNGRVGYDYWGLGTQVTVSS,polyreactivity (PSR sort gate),low polyreactivity
QVQLVQSGGGLVQAVGSLRLSCAASGRTFPYYTMGWYRQARGKERELVAAINSSGGRTYYADSVKGRFTISRDNAKNTVYLQMNSLKPEDTAVYYCAKRGYYKYDWGQGTQVTVSS,polyreactivity (PSR sort gate),high polyreactivity
QVQLVQSVVGLVQAGRRLRLSSAASGRIFFYNAMGWYRHAPGKERELVAGISRSGTSTYYADSVKGRFTISRDNAKNTVYLHMNSLKPEDTAVYYCAAGTFYYWLSYDYWGQGTQVTVSS,polyreactivity (PSR sort gate),low polyreactivity
QVQLVQTGGGLVQAGGSLRLSCAASGSTFWYNAMGWSRQAPGKERELVARISYSGGSTYYADSVKGRFTISRDNAKNTVYLQMNCLKPEDTAVEYCAGRRPYKYDYWGQGTQVTVSS,polyreactivity (PSR sort gate),high polyreactivity
QVQLVVSGGGLDQARGSLRLSCAASGSNFFYYAMGWYRQAPWKERELVAGINWSGGSTYADSVKGRFTISRDNAKNTVYLQMNSLKPEDTAVYYCAAKFYSERSSYHYWGQGTQVTVSS,polyreactivity (PSR sort gate),low polyreactivity
QVQLVVSGGGLVQAGGRLRLSCAASGFTFRRNARGWYRQAPGKVWELVAGITSSGTSTYYADSVKGRFTISRDNAKNTVNLQMNSLKPEDTAVYYCNADTPRTGGYWGQGTQVTVSS,polyreactivity (PSR sort gate),high polyreactivity
QVQLVVSGGGLVQAGGRLRLSCAATGSTFSVNAMGWSRQAPGKERELVAAITRSGGSTYYADSVKGRFTFSRDNAKNSVYLQLNSLKPEDTAVYYCAAEIYPLGEYWGQGTQVTVSS,polyreactivity (PSR sort gate),low polyreactivity
QVQLVVSGGGLVQAGGSLRLSCAASGGTFQHNTMGWYRQAPGKERELVAAIRWSDGSTYYADSVKGRFTISRDNAKTTVYLQMNSLKPEDTSVYYCNRAYTASYIPRVGFWGQGTQVTVSS,polyreactivity (PSR sort gate),high polyreactivity
QVQLVVSGGGLVQAGGSLRLSCAASGRIFRAYAMGWYRQAPGQERELVADITSGSGSTYYADSVKGRFTISRDNAKNTVYLQMNSLKPEDTAVYYCAADVFIRDWEYYYWGQGTQVTVSS,polyreactivity (PSR sort gate),low polyreactivity
QVQLVVSGGGLVQAGGSLRLSCAASGRIFVYNAMGWYRQAPGKERELVATITSGGSTYYADSVKGRFTISRDNAKNTVYLQMNSLKPEDTAVYYCAARRWYVHYFAYGYWGQGTQVTVSS,polyreactivity (PSR sort gate),low polyreactivity
QVQLVVSGGGLVQAGGSLRLSCAASGRTFPRYAMGWYRQAPGKERELVASISRRGGSTYYADSVKGRFTISRDNAKNTVYLQMNSLKPEDTAVYYCNAQGYPYKQSTGDFWGQGTQVTVSS,polyreactivity (PSR sort gate),high polyreactivity
QVQLVVSGGGLVQAGGSLRLSCAASGSIFLVNVMGGDRQAPGKERELVAAITWSGGRTYYADSVKGRFTISRDNAKNTVYLPRNSRLPEDTAVYYCAAQTPRFVWQKGPLDSEDYWGQGTQVTVSS,polyreactivity (PSR sort gate),high polyreactivity
QVQLVVSGGGLVQAGGSLRLSCAASGSLFTPYAMGWYRQAPGKERELVATISWSGGRTYYADSVKGRFTISRDNAKNPVYLQMNSLKPEDTAVYYCAARGYSSEYDYWGQGTQVTVSS,polyreactivity (PSR sort gate),high polyreactivity
QVQLVVSGGGLVQAGGSLRLSCAASGSTFVSNAMGWYRQAPGQERELVAAITSGGSTDYADSVKGRCTISRDNAKNTVYVQMNSLQPEDTAVYYGAADPEWHSDQPRVGYVGYNYWGQGTQVNVSS,polyreactivity (PSR sort gate),low polyreactivity
QVQLVVSGGGLVQAGGSLRLSCAASGYIFDYNAMGWYIQSPGKERELVAAINWSGGSTYYADSVKGRFTISRDNAKNTVYLQMNSLKPEDTAVYYCNKLIYGIYYPERYAYDYWGQGTQVTVSS,polyreactivity (PSR sort gate),low polyreactivity
QVQLVVSGGGLVQAGGSLRLSCAASGYIFYANAMGWYRQAPGKEWELVAAITQSGGRTYYADSVKGRFTISRDNAKNTVYLQMNSLKPEDTAVYYCAAQPWRALGYYYWGQGTQVTVSS,polyreactivity (PSR sort gate),high polyreactivity
QVQLVYSGGGLVQAGGSLRLSCAASGRTFARYAMGWYIQAPWKERELVAAITRSGGSTTYADSVKGLFTISRDNAKNTVYVQLYSLKPVYTAVYFCASSTSLRLDYWGQGTQVTVSS,polyreactivity (PSR sort gate),high polyreactivity
QVQMQESGGGLEQAGGSLRLSCAASGNISGFGYMGWYRQAPGKEREFVAAISYGTSTYYADSVKGLFTISRDNAKNTVYLQINSLKPEDTAVFYCAALCLISKHHHYWGEGTQVTVSS,polyreactivity (PSR sort gate),high polyreactivity
QVQNVESGGGLVQARGSLRLSCAASGRTFTESDMGRYRQAPGKERELVAAITSVGSTYYADSVKGRFTISRYNAKNTVYLQMNSLKPEDTAVYYCAAEWQNTNMDYWGQGTQVTVSS,polyreactivity (PSR sort gate),low polyreactivity
QVQPQERGGGPVQACGSLRLSCAARGNILDADILGWYRLVPGKEGELVASITDGGSTNYAESVKGRFTLSRDNAINTVYHHMNSLKPEDTAVYYCAANARSHAEHDYWGQGTQVTVSS,polyreactivity (PSR sort gate),low polyreactivity
QVQQHESGGGLVQAGGSLRLTCAASGTISESGLMGWYRQAPGKERELVAGISSGGITNYADSVKGRFTISRDIAINTVYLQMNSPKPEDTAEYWGQGSQVTVSS,polyreactivity (PSR sort gate),low polyreactivity
QVQQQESGGGLVQAGGSLRLSCAASGTIFQLTFMGRYRQAPGKERELVASIDYGGNTNYADSVKGRFTISRDNAKNNVYLQMNSLKPEDTAVYYCAASSDSWTTHPYWGQGTHVTVSS,polyreactivity (PSR sort gate),low polyreactivity
QVQREESGGGLVQAGGSLRLSCAASGITFKWYAMGWYRQAPGKEREFVAIISTRGGSTYYADSVKGRFTISRDNAKNTVYLQMNSLKPVDTAVYYCNAVRSRVVHRRGDFDYWGQGTQVTVSS,polyreactivity (PSR sort gate),high polyreactivity
QVQREESGGGLVQAGGSLRLSCVASGSTFRYYAMGWYRQSPGTERELVAAITWRGTSTYYADSVKGRFTISRDNAKNTVYLQMNSLKPEDTAVYYCNAAGYWPATGDYWGQGTQVTVSW,polyreactivity (PSR sort gate),high polyreactivity
QVQRVESGGCLVQAGGSLRLSCAASGIIFGDNVRGWYRQSPGKERQLVAAITSDGSTNYADSVKGRFTISSDNEKNNVYLQMNSLKPEDTAVYYCNVSASYYSPDPKVLVRYDYWGQGSQVTVSS,polyreactivity (PSR sort gate),low polyreactivity
QVQRVESGGGIVQAGVSLSLSCPASGRIFTSNAMGWYRQEPGKERELVAAIRWSDGSTYYADSVKGRFTISRDNAKNTVYLQMNSLKPEDTAVYYCAADTRTSYYNDDYVFWGQGTQVTVSS,polyreactivity (PSR sort gate),low polyreactivity
QVQRVESGGGLVPAGGSLRLSCAASGSIFYYNAMGWYRQAPGKERELVAAISWGDGITYYADSVKGRFTISRDNAKKTVYVQMNSLKPEDTAVYYCAVDYYYLPYEYWGQGTQVTVSS,polyreactivity (PSR sort gate),high polyreactivity
QVQRVESGGGLVQAGGRLRLSCAASGLIFAHDARGWYRQAPGKERELVAGINRSGGSTYYADSVKGRFTISRDNAKNTVYLQTNSLKPEDTAVYYCAARRAYPRPGYDYWGQGTQVTVSS,polyreactivity (PSR sort gate),high polyreactivity
